Experimental data as given in publication PMC4125498 (Nature structural & molecular biology, 2014).
One block for each binder: values may come before it. No end group written: not given here.

B2: human Plk4 cryptic polo box (CPB, residues 580–808), His6-MBP tag removed (domain or fragment, UniProt O00444 580-808, looked up)
chain: WGYQNRTLRSITSPLVAHRLKPIRQKTKKAVVSILDSEEVCVELVKEYASQEYVKEVLQISSDGNTITIYYPNGGRGFPLADRPPSPTDNISRYSFDNLPEKYWRKYQYASRFVQLVRSKSPKITYFTRYAKCILMENSPGADFEVWFYDGVKIHKTEDFIQVIEKTGKSYTLKSESEVNSLKEEIKMYMDHANEGHRICLALESIISEEERKTRSAPFFPIIIGRKPG

Tests used:
GST-Plk4 C (580–970) = biological target: T1, GST-Plk4 C (580–970) (human, UniProt O00444 580-970); assay: pull-down
T1 sequence (looked up): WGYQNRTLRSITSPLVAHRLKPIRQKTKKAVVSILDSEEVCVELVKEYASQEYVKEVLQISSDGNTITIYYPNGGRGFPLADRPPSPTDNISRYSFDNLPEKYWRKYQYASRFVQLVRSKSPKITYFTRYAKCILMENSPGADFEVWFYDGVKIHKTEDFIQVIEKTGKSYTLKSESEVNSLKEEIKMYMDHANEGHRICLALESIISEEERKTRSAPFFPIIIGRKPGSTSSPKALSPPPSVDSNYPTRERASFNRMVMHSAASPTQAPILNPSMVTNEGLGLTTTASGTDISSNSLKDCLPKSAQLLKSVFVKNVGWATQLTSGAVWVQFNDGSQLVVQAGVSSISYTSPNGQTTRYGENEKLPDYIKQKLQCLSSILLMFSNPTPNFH

[1] = biological target: T2, His6-MBP-TEV-Cep192 58mer (201–258) (human, UniProt Q8TEP8 201-258); assay: pull-down
T2 sequence (looked up): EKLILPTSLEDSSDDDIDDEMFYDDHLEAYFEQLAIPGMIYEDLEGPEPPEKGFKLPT

[2] = biological target: B2; assay: fluorescence polarisation
[3] = biological target: B2; assay: fluorescence polarisation; remark: listed apart in the source

- binding result (GST-Plk4 C (580–970)): binds
B1: His6-MBP-TEV-Cep152 (1–217) (domain or fragment, human, UniProt O94986 1-217, looked up)
chain: MSLDFGSVALPVQNEDEEYDEEDYEREKELQQLLTDLPHDMLDDDLSSPELQYSDCSEDGTDGQPHHPEQLEMSWNEQMLPKSQSVNGYNEIQSLYAGEKCGNVWEENRSKTEDRHPVYHPEEGGDEGGSGYSPPSKCEQTDLYHLPENFRPYTNGQKQEFNNQATNVIKFSDPQWNHFQGPSCQGLEPYNKVTYKPYQSSAQNNGSPAQEITGSDT

- IC50 [3]: 64 nM
B5: His6-MBP-TEV-Cep152 60mer (1–60) (domain or fragment, human, UniProt O94986 1-60, looked up)
chain: MSLDFGSVALPVQNEDEEYDEEDYEREKELQQLLTDLPHDMLDDDLSSPELQYSDCSEDG

Second part, the binder before the results:

Binder: B2
- stoichiometry N [1]: ~2 MBP-Cep192-58mer per CPB dimer

B3: Alexa 488-conjugated MBP-Cep192-58mer (domain or fragment, human, UniProt Q8TEP8 201-258, looked up)
chain: EKLILPTSLEDSSDDDIDDEMFYDDHLEAYFEQLAIPGMIYEDLEGPEPPEKGFKLPT
modifications: also: Alexa Fluor 488 conjugated, sites not given here, MBP fusion
- Kd [2]: 177 nM

B4: Alexa 488-conjugated MBP-Cep152-60mer (domain or fragment, human, UniProt O94986 1-60, looked up)
chain: MSLDFGSVALPVQNEDEEYDEEDYEREKELQQLLTDLPHDMLDDDLSSPELQYSDCSEDG
modifications: also: Alexa Fluor 488 conjugated, sites not given here, MBP fusion
- Kd [2]: 32 nM
